Bounds are passed on as bounds.

For the assay, the target named is T1, purified integrin αIIbβ3 (R&D Systems #7148-A2-025) (UniProt P08514 32-993; P05106 27-718).
T1 construct: One protein preparation was tested in two states; also called GPIIb-IIIa; CD41/CD61
The assay can be described thus: SPR single-cycle kinetics, sEng-Strep on SA chip, activated Ca2+/Mn2+-loaded integrin as analyte, 25° C.; apparent value; activated Ca2+/Mn2+-loaded integrin αIIbβ3 as analyte. The method, then:
The association between sEng-Strep-tag® II and integrin αIIbβ3 was analyzed by surface plasmon resonance (SPR) on a streptavidin (SA) biosensor (Cytiva) at 25° C. First, we immobilized resonance units (RU) of sEng-Strep-tag® II onto the test flow cell of a SA chip through the C-terminal StrepII-tag to provide a sEng concentration on the surface of ˜10 μM. The reference flow cell was not modified. […] Polysorbate 20 (PS20), either supplemented with 1 mM MnCl2 and 1 mM CaCl2 or after extensive dialysis against EDTA to remove residual divalent cations in the protein preparation. Integrin αIIbβ3 (25 μg per experiment) was resuspended to 0.2 mg/ml (˜1 μM) in the appropriate running buffer before use. Analysis was performed with the BiaEvaluation version 3.0.2 software (Cytiva) and the Anabel webserver.
To investigate this interaction, we analyzed the association between sEng-Strep-tag® II (sEng-Strep) and integrin αIIbβ3 by surface plasmon resonance (SPR) on a streptavidin (SA) biosensor (Cytiva) at 25° C. using single-cycle kinetics. When non-activated integrin αIIbβ3 was flowed over surface-immobilized sEng-Strep, no binding was detected (FIG. 5).

B1: sEng-Strep-tag II (streptavidin-tagged construct of soluble endoglin) (receptor, human, UniProt P17813 26-586, looked up)
chain: ETVHCDLQPVGPERGEVTYTTSQVSKGCVAQAPNAILEVHVLFLEFPTGPSQLELTLQASKQNGTWPREVLLVLSVNSSVFLHLQALGIPLHLAYNSSLVTFQEPPGVNTTELPSFPKTQILEWAAERGPITSAAELNDPQSILLRLGQAQGSLSFCMLEASQDMGRTLEWRPRTPALVRGCHLEGVAGHKEAHILRVLPGHSAGPRTVTVKVELSCAPGDLDAVLILQGPPYVSWLIDANHNMQIWTTGEYSFKIFPEKNIRGFKLPDTPQGLLGEARMLNASIVASFVELPLASIVSLHASSCGGRLQTSPAPIQTTPPKDTCSPELLMSLIQTKCADDAMTLVLKKELVAHLKCTITGLTFWDPSCEAEDRGDKFVLRSAYSSCGMQVSASMISNEAVVNILSSSSPQRKKVHCLNMDSLSFQLGLYLSPHFLQASNTIEPGQQSFVQVRVSPSVSEFLLQLDSCHLDLGPEGGTVELIQGRAAKGNCVSLLSPSPEGDPRFSFLLHFYTVPIPKTGTLSCTVALRPKTGSQDQEVHRTVFMRLNIISPDLSGCTSKG
notes: extracellular domain; Immobilised on a streptavidin (SA) chip through the C-terminal StrepII-tag; not shown: C-terminal Strep-tag II
As a reminder, the koff is the first-order rate constant of dissociation. For the molecule B1, the Kd was less than 9 nM and the koff is less than 0.008 s⁻¹.
